This data set deals with Timeless (optimised construct);Tipin (human;human, UniProt Q9UNS1;Q9BVW5 1-238+=GSTGST+331-1208;1-301, internal_change|). The data set can be described thus: EMSA.

B1: dsG4 (dsGQ) (structured_DNA)
DNA 1: ACGAGAGCTAGCACATTTTGAGGGTGGGTAGGGTGGGTAATTTTCACGTAGAACCTGT
DNA 2: ACAGGTTCTACGTGATTTTTTTTTTTTTTTTTTTTTTTTTTTTTGTGCTAGCTCTCGT
Take B1: the binding result was “binds”.

B2: dsHP (structured_DNA)
DNA 1: ACGAGAGCTAGCACATTTTGAGGCTGCGTTTCGCAGCCTCAATTTCACGTAGAACCTGT
DNA 2: ACAGGTTCTACGTGATTTTTTTTTTTTTTTTTTTTTTTTTTTTTGTGCTAGCTCTCGT
Regarding B2, the binding result was “no binding”.
